# Test results published in patent US20130109846A1 (published 2013).
# Target: human CD28 (human, UniProt P10747 19-220)
# Test: cell-based or functional assay
Binder,Luciferase assay (EC50) [nM],MLR assay (EC50) [nM]
1h-72 (other) VL: DIQMTQSPSSLSASVGDRVTITCRASRSINHWLDWYQQKPGKAPTLLISGVSWLQSGVPSRFSGSGSGTDFTLTISSLQPEDFATYYCCQPGFRPCTFGQGTKVEIKR,3400,–
1h-36-6 (other) VL: DIQMTQSPSSLSASVGDRVTITCRASRDIALDLLWYQLKPGKAPKLLIKGWSGLQSGVPSRFSGSGSGTDFTLTISSLQPEDFATYFCAQGWGRPVTFGQGTKVEIKR,162,260
1h-70 (other) VL: DIQMTQSPSSLSASVGDRVTITCRASQSIGTGLRWYQQKPGKAPMLLIYRASILQSGVPSRFSGGGSGTDFTLTISSLQPEDFATYYCQQTWYRPYTFGQGTKVEIKR,6600,–
1h-35-7 (other) VL: DIQMTQSPSSLSASVGDRVTITCRASQYIGSALGWYQQKPGKAPKLLIYRASNLQSGVPSRFSGSGYGTGFTLTISSLQPEDFATYYCQQLAIRPFTFGQGTKVEIKR,79,270
1h-35-9 (other) VL: DIQMTQSPSSLSASVGDRVTITCRASQYIGSALGWYQQKPGKAPKLLIYRASNMQSGVPSRFSGSGSGTDFTLTISSLQPEDFATYYCQQLAIRPFTFGQGTKVEIKR,278,318
1h-75 (other) VL: DIQMTQSPSSLSASVGDRVTITCRASQYIGTRLSWYQQKPGKAPKLLIYNASFLQSGVPSRFSGSGSGTDFTLTISSLQPEDFATYYCQQLALSPLTFGQGTKVEIKR,5700,–
1h-74 (other) VL: DIQMTQSPSSLSASVGDRVTITCRASQYIGGALSWYQQKPGKAPKLLIYRASRLQSGVPSRFSGSGSGTDFTLTISSLQPEDFATYYCQQVALVPYTFGQGTKVEIKR,1300,–
1h-38 (other) VL: DIQMTQSPSSLSASVGDRVTITCRASQPIGSVLAWYQQKPGKAPKLLIYFSSILQSGVPSRFSGSGSGTDFTLTISGLQPEDFATYYCQQALRSPFTFGQGTKVEIKR,650,725
1h-79-15 (other) VL: DIQMTQSPSSLSASVGDRVTITCRASQPIGHSLGWYQQKPGKAPKLLIYWASTLQSGVPSRFSGSGSGTDFTITISSLQPEDFATYYCQQMLRTPFTFGQGTKVEIKR,40,268
1h-39 (other) VL: DIQMTQSPSSLSASVGDRVTITCRASQYIGTALHWYQQKPGKAPRLLIYLSSNLQSGVPSRFSGSGSGTDFTLTISSLQPEDFATYYCQQSALNPYTFGQGTKVEIKR,1300,–
1h-73 (other) VL: DIQMTQSPSSLSASVGDRVTITCRASQYIGTQLSWYQQKPGKAPKLLIYRGSLLQSGVPSRFSGSGSGTDFTLTISSLQPEDFATYYCQQTALSPYTFGQGTKVEIKR,4900,–
1h-69 (other) VL: DIQMTQSPSSLSASVGDRVTITCRASQKIGTGLRWYQQKPGKAPKLLIYRASVLQSGVPSRFSGSGSGTDFTLTISSLQPEDFATYYCQQTAFPPYTFGQGTKVEIKR,> 7000,–
1h-79-1 (other) VL: DIQMTQSPSSLSASVGDRVTITCRASQPIGHSFGWYQQKPGKAPKLLIYWASTLQSGVPTRFSGSGSGTDFTLTISSLQPEDFATYYCQQMLRTPFTFGQGTKVEIKR,418000,2100
1h-79-2 (other) VL: DTQMTQSPSSLSASVGDRVTITCRASRPIGHSLGWYQQKPGKAPKLLIYWASMLQSGVPSRFSGSGSGTDFTLTISSLQPEDFATYYCQQMLRTPFTFGQGTKVEIKR,166,–
1h-71 (other) VL: DIQMTQSPSSLSASVGDRVTITCRASRDIGHMLNWYQQKPGKAPKLLIWFGSVLQSGVPSRFSGSGSGTDFTLTISSLQPEDFATYYCVQGRLRPPTFGQGTKVEIKR,3500,–

# The next lines start with the values.
Luciferase assay (EC50) [nM],MLR assay (EC50) [nM],Binder
62,38,1h-79-26 (other) VL: DIQMTQSPSSLSASVGDRVTITCRASQPIGHSLGWYQQKPGKAPKLLIYWASMLQSGVPSRFSGSGSGTDFTLTISSLQPEDFATYYCQQMLRTPFSFGQGTKVEIKR
331,295,1h-79-24 (other) VL: DIQMTQSPSSLSASVGDRVTITCRASQPIGHSLGWYQQKPGKAPKLLIYWASTLQSGVPSRFSGSGSGTDFTLTISSLQPEDFATYYCQQMLRTPFAFGQGTKVEIKR
3000,–,1h-79-21 (other) VL: DIQMTQSPSSLSASVGDRVTITCRASQPIGHSFAWYQQKPGKAPKLLIYWASTLQSGVPSRFSGSGSGTDFTLTISSLQPEDFATYYCQQMLRTPFTFGQGTKVEIKR
2500,–,1h-79-17 (other) VL: DIQMTQSPSSLSASVGDRVTITCRASQPIGHSLAWYQQKPGKAPKLLIYWASTLQSGVPSRFSGSGSGTDFTLTISSLQPEDFATYYCQQMLRTPFAFGQGTKVEIKR
43,150,1h-79-29 (other) VL: DIQMTQSPSSLSASVGDRVTITCRASQPIGHSLGWYQQKPGKAPKLLIYWASMLQSGVPSRFSGSGSGTDFTLTISSLQPEDFATYYCQQMLRTPFAFGQGTKVEIKR
750,–,1h-79-22 (other) VL: DIQMTQSPSSLSASVGDRVTITCRASQPIGHSLAWYQQKPGKAPKLLIYWASMLQSGVPSRFSGSGSGTDFTLTISSLQPEDFATYYCQQMLRTPFSFGQGTKVEIKR
103,–,1h-79-1505 (other) VL: DIQMTQSPSSLSASVGDRVTITCRASQPIGHSLGWYQQKPGKAPKLLIYWGSWLQSGVPSRFSGSGSGTDFTLTISSLQPEDFATYYCQQMLRTPFTFGQGTKVEIKR
40,109,1h-79-28 (other) VL: DIQMTQSPSSLSASVGDRVTITCRASQPIGHSLGWYQQKPGKAPKLLIYWASMLQSGVPSRFSGSGSGTDFTLTISSLQPEDFATYYCQQMLRTPFMFGQGTKVEIKR
1800,–,1h-79-20 (other) VL: DIQMTQSPSSLSASVGDRVTVTCRASQPIGHSLAWYQQKPGKAPKLLIYWASMLQSGVPSRFSGSGSGTDFTLTISSLQPEDFATYYCQQMLRTPFTFGQGTKVEIKR
> 7000,–,1h-100 (other) VH: EVQLLESGGGLVQPGGSLRLSCAASGFTFESYWMSWVRQAPGKGLEWVSTIADTGGLTYYADSVKGRFTISRDNSKNTLYLQMNSLRAEDTAVYYCAKVAYVLDDQPAFDYWGQGTLVTVSS
3100,–,1h-114 (other) VH: EVQLLESGGGLVQPGGSLRLSCAASGFTFASYSMAWVRQAPGKGLEWVSTIMPSGQRTYYADSVKGRFTISRDNSKNTLYLQMNSLRAEDTAVYYCAKNQSHQRRGIFDYWGQGTLVTVSS
141,103,1h-79-31 (other) VL: DIQMTQSPSSLSASVGDRVTITCRASQPIGHSFGWYQQKPGKAPKLLIYWASMLQSGVPSRFSGSGSGTDFTLTISSLQPEDFATYYCQQMLRTPFMFGQGTKVEIKR
224,126,1h-79-30 (other) VL: DIQMTQSPSSLSASVGDRVTITCRASQPIGHSFGWYQQKPGKAPKLLIYWASMLQSGVPSRFSGSGSGTDFTLTISSLQPEDFATYYCQQMLRTPFSFGQGTKVEIKR
68,–,1h-79-32 (other) VL: DIQMTQSPSSLSASVGDRVTITCRASQPIGHSFGWYQQKPGKAPKLLIYWASMLQSGVPSRFSGSGSGTDFTLTISSLQPEDFATYYCQQMLRTPFAFGQGTKVEIKR
113,68,1h-79-1520 (other) VL: DIQMTQSPSSLSASVGDRVAITCRASQPIGHSLGWYEQKPGKAPKLLIYWSSVLISGVPSRFSGSGSGTDFTLTISSLQPEDFATYYCQQMLRTPFTFGQGTKVEIKR
97,37,1h-79-1519 (other) VL: DIQMTQSPSSLSASVGDRVTITCRASQPIGHSLGWYQQKPGKAPKLLIYWASLLLDGVPSRFSGSGSGTDFTLTISSLQPEDFATYYCQQMLRTPFTFGQGTKVEIKR
19,9,1h-79-1512 (other) VL: DIQMTQSPSSLSASVGDRVTITCRASQPIGHSLGWYQQKPGKAPKLLIYWASVLLHGVPSRFSGSGSGTDFTLTISSLQPEDFATYYCQQMLRTPFTFGQGTKVEIKR
4000,> 7000,1h-115 (other) VH: EVQLLESGGGLVQPGGSLRLSCAASGFTFSEYSMAWVRQAPGKGLEWVSHISRDGEFTYYADSVKGRFTISRDNSKNTLYLQMNSLRAEDTAVYYCAKGNADLGWVQPHLFVYWGQGTLVTVSS
2800,–,1h-119 (other) VH: EVQLLESGGGLVQPGGSLRLSCAASGFTFTDRCMMWVRQAPGKGLEWVSSIQVEGNHTYYADSVKGRFTISRDNSKNTLYLQMNSLRAEDTAVYYCAKCMTVGPGNSFDYWGQGTLVTVSS
